# Source: US20190284240A1 (OHIO STATE INNOVATION FOUNDATION, published 2019)
# Square brackets hold non-standard residues; d marks the D form. Pmp = N[C@@H](Cc1ccc(CP(=O)(O)O)cc1)C(=O)O; pY = N[C@@H](Cc1ccc(OP(=O)(O)O)cc1)C(=O)O; 2Nal = N[C@@H](Cc1ccc2ccccc2c1)C(=O)O
# What was measured:
# [1] = target: T1, Grb2 SH2 domain (UniProt P62993 60-152, limits assumed); experiment: fluorescence anisotropy, direct binding of the FAM-labeled ligand to the Grb2 SH2 domain
# T1 construct: domain: SH2 domain
# T1 sequence (P62993 60-152 limits assumed): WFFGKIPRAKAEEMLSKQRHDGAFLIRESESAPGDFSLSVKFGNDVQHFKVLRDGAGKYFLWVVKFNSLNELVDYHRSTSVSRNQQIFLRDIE
# [2] = target: T2, Kelch-like ECH-associated protein-1 (Keap1) (UniProt Q14145 321-609, limits assumed); experiment: fluorescence anisotropy competition assay, displacement of the fluorescent Nrf2 peptide from Keap1
# T2 sequence (Q14145 321-609 limits assumed): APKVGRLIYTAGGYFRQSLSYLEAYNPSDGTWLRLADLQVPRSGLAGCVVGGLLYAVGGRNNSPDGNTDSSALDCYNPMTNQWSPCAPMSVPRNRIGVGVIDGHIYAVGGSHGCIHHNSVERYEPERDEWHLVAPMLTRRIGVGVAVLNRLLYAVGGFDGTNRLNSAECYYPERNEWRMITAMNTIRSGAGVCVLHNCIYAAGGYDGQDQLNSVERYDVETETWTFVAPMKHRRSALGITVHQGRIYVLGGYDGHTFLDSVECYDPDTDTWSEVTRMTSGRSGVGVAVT
# Protocol: (§1) The percentage of inhibition was calculated from the fluorescence anisotropy decrease by using equation
# (§2) and plotted against the inhibitor concentration.
# [3] = target: T2, Kelch-like ECH-associated protein-1 …; experiment: fluorescence anisotropy competition assay; reference peptide not named (34-fold matches BH17, […] nM)
# Protocol: as §1, §2
# [4] = target: T2, Kelch-like ECH-associated protein-1 …; experiment: fluorescence anisotropy competition assay; reference BH17
# Protocol: as §1, §2
# [5] = target: T1, Grb2 SH2 domain; experiment: binding to the Grb2 SH2 domain; reference BH23
# [6] = target: T1, Grb2 SH2 domain; experiment: binding to the Grb2 SH2 domain; assay not named, presumably the same FP competition assay
# [7] = target: T2, Kelch-like ECH-associated protein-1 …; experiment: fluorescence anisotropy competition assay; reference BH15
# Protocol: as §1, §2
# [8] = target: T2, Kelch-like ECH-associated protein-1 …; experiment: fluorescence anisotropy competition assay; reference BH13
# Protocol: as §1, §2
# [9] = target: T1, Grb2 SH2 domain; experiment: FP-based competition assay, unlabeled peptide against the FAM-labeled reporter ligand on the Grb2 SH2 domain
molecule,measurement,setting,value
cyclo(AApYVNFFQ)-β-Ala-K(FAM) (peptide),Kd,[1],0.092 µM
"cyclo(FF[2Nal][dR][dP]PRRFQLDPETGE) (SMILES CC(C)C[C@@H]1NC(=O)[C@H](CCC(N)=O)NC(=O)[C@H](Cc2ccccc2)NC(=O)[C@H](CCCNC(=N)N)NC(=O)[C@H](CCCNC(=N)N)NC(=O)[C@@H]2CCCN2C(=O)[C@H]2CCCN2C(=O)[C@@H](CCCNC(=N)N)NC(=O)[C@H](Cc2ccc3ccccc3c2)NC(=O)[C@H](Cc2ccccc2)NC(=O)[C@H](Cc2ccccc2)NC(=O)[C@H](CCC(=O)O)NC(=O)CNC(=O)[C@H]([C@@H](C)O)NC(=O)[C@H](CCC(=O)O)NC(=O)[C@@H]2CCCN2C(=O)[C@H](CC(=O)O)NC1=O, The underlining is not visible, so the entry may be only part of the peptide; also called cyclo(F-F-Φ-r-p-P-R-R-F-Q-L-D-P-E-T-G-E)) [BH13]",IC50,[2],0.153 µM
"cyclo(F[2Nal][dR][dP]PRRFNAETGE) (SMILES C[C@@H]1NC(=O)[C@H](CC(N)=O)NC(=O)[C@H](Cc2ccccc2)NC(=O)[C@H](CCCNC(=N)N)NC(=O)[C@H](CCCNC(=N)N)NC(=O)[C@@H]2CCCN2C(=O)[C@H]2CCCN2C(=O)[C@@H](CCCNC(=N)N)NC(=O)[C@H](Cc2ccc3ccccc3c2)NC(=O)[C@H](Cc2ccccc2)NC(=O)[C@H](CCC(=O)O)NC(=O)CNC(=O)[C@H]([C@@H](C)O)NC(=O)[C@H](CCC(=O)O)NC1=O, also called cyclo(F-Φ-r-p-P-R-R-F-N-A-E-T-G-E)) [BH19]",fold reduction in inhibition potency,[3],34 fold
same,IC50,[2],5.54 µM
"cyclo(F[2Nal][dR][dP]PRRFLNAETGE) (SMILES CC(C)C[C@@H]1NC(=O)[C@H](Cc2ccccc2)NC(=O)[C@H](CCCNC(=N)N)NC(=O)[C@H](CCCNC(=N)N)NC(=O)[C@@H]2CCCN2C(=O)[C@H]2CCCN2C(=O)[C@@H](CCCNC(=N)N)NC(=O)[C@H](Cc2ccc3ccccc3c2)NC(=O)[C@H](Cc2ccccc2)NC(=O)[C@H](CCC(=O)O)NC(=O)CNC(=O)[C@H]([C@@H](C)O)NC(=O)[C@H](CCC(=O)O)NC(=O)[C@H](C)NC(=O)[C@H](CC(N)=O)NC1=O, also called cyclo(F-Φ-r-p-P-R-R-F-L-N-A-E-T-G-E)) [BH18]",fold decrease in affinity vs BH17,[4],~10 fold
same,IC50,[2],1.4 µM
cyclo(F[2Nal][dR][dP]PRR[Pmp]VN) (SMILES CC(C)[C@@H]1NC(=O)[C@H](Cc2ccc(CP(=O)(O)O)cc2)NC(=O)[C@H](CCCNC(=N)N)NC(=O)[C@H](CCCNC(=N)N)NC(=O)[C@@H]2CCCN2C(=O)[C@H]2CCCN2C(=O)[C@@H](CCCNC(=N)N)NC(=O)[C@H](Cc2ccc3ccccc3c2)NC(=O)[C@H](Cc2ccccc2)NC(=O)[C@H](CC(N)=O)NC1=O) [BH26],fold less potent than BH23,[5],~3 fold
same,IC50,[6],1.37 µM
"cyclo(FF[2Nal][dR][dP]PRRFLNAETGE) (SMILES CC(C)C[C@@H]1NC(=O)[C@H](Cc2ccccc2)NC(=O)[C@H](CCCNC(=N)N)NC(=O)[C@H](CCCNC(=N)N)NC(=O)[C@@H]2CCCN2C(=O)[C@H]2CCCN2C(=O)[C@@H](CCCNC(=N)N)NC(=O)[C@H](Cc2ccc3ccccc3c2)NC(=O)[C@H](Cc2ccccc2)NC(=O)[C@H](Cc2ccccc2)NC(=O)[C@H](CCC(=O)O)NC(=O)CNC(=O)[C@H]([C@@H](C)O)NC(=O)[C@H](CCC(=O)O)NC(=O)[C@H](C)NC(=O)[C@H](CC(N)=O)NC1=O, also called cyclo(F-F-Φ-r-p-P-R-R-F-L-N-A-E-T-G-E)) [BH16]",IC50,[2],1.47 µM
same,fold decrease in affinity vs BH15,[7],~10 fold
"cyclo(FF[2Nal][dR][dP]PRRFQLNAETGE) (SMILES CC(C)C[C@@H]1NC(=O)[C@H](CCC(N)=O)NC(=O)[C@H](Cc2ccccc2)NC(=O)[C@H](CCCNC(=N)N)NC(=O)[C@H](CCCNC(=N)N)NC(=O)[C@@H]2CCCN2C(=O)[C@H]2CCCN2C(=O)[C@@H](CCCNC(=N)N)NC(=O)[C@H](Cc2ccc3ccccc3c2)NC(=O)[C@H](Cc2ccccc2)NC(=O)[C@H](Cc2ccccc2)NC(=O)[C@H](CCC(=O)O)NC(=O)CNC(=O)[C@H]([C@@H](C)O)NC(=O)[C@H](CCC(=O)O)NC(=O)[C@H](C)NC(=O)[C@H](CC(N)=O)NC1=O, also called cyclo(F-F-Φ-r-p-P-R-R-F-Q-L-N-A-E-T-G-E)) [BH14]",fold decrease in affinity vs BH13,[8],~10 fold
same,IC50,[2],1.4 µM
"cyclo(FA[dA][dP]PRR[pY]VN) (SMILES CC(C)[C@@H]1NC(=O)[C@H](Cc2ccc(OP(=O)(O)O)cc2)NC(=O)[C@H](CCCNC(=N)N)NC(=O)[C@H](CCCNC(=N)N)NC(=O)[C@@H]2CCCN2C(=O)[C@H]2CCCN2C(=O)[C@@H](C)NC(=O)[C@H](C)NC(=O)[C@H](Cc2ccccc2)NC(=O)[C@H](CC(N)=O)NC1=O, Control peptide: the Nal-arg of BH23 is replaced with Ala-ala; also called cyclo[F-A-a-p-P-R-R-pY-V-N); negative control peptide BH25) [BH25]",IC50,[9],0.1 µM
cyclo(F[2Nal][dR][dP]PRR[pY]VN) (also called cyclo(pY-V-N-F-Φ-r-p-P-R-R); cyclo[F-Φ-r-p-P-R-R-pY-V-N)) [BH23],IC50,[9],0.4 µM
